Measurements as given in patent US20200010513A1.

Assays:
Experiment in all cases: cell-based or functional assay
[1] = molecular target: TM-CIBN-NES-TEV-N-BLITz-1-tTA
[2] = molecular target: TM-CIBN-NES-TEV-N-BLITz-6-tTA
[3] = molecular target: TM-CIBN-TEV-N-TEVseq-tTA with intact TEVseq without a fusion to the AsLOV2 protein

Substance: NES-CRY2PHR-TEV-C
- SEAP assay, fold gene expression by blue light (HEK293T cells) [1]: > 20 fold
- SEAP assay, fold gene expression by blue light (HEK293T cells) [2]: > 20 fold
- SEAP assay, fold change of gene expression by blue light (HEK293T cells) [3]: 1.4 fold
